Source: patent US20250376498A1, “FUSION PROTEINS COMPRISING AN IMPROVED GLP-1 RECEPTOR AGONIST AND USES THEREOF” (Guangzhou Innogen Pharmaceutical Group Co., Ltd., priority 2022, published 2025)
Where “and” joins values, the source holds several entries; their conditions need not be identical. Equal values may be shown once.

What was measured:
[1] = system: INS-1 cells; test: Insulin secretion from INS-1 cells; format: cell-based
Method: Natural GLP-1 stimulates insulin secretion from beta cells in a glucose-dependent manner. […] INS-1 cells were serum-starved and glucose-starved, then treated with different amounts of purified YN-011 in the presence of 0, 5, or 20 mM glucose as indicated.

[2] = system: DIO mice; test: High-fat diet-induced obese (DIO) mice; format: in vivo
Method: The effects of multiple administrations of YN-011 on glucose tolerance, insulin sensitivity, metabolism, and weight reduction were evaluated in high-fat diet (HFD)-induced obese mice. Male C57BL/6 mice, 5 months old (obtained from commercial sources such as Shanghai Slake Experimental Animals Co., Ltd., under standard housing conditions), were fed with an HFD (60% of total calories from fat, 20% from carbohydrates) for 6 months to establish the diet-induced obesity (DIO) mouse model. The DIO mice (weighing >50 g) were then divided into two groups (5 animals per group), with the experimental group receiving subcutaneous injections of 0.3 mg/kg of YN-011 twice a week (BIW) and the control group receiving phosphate-buffered saline (PBS) injections. The treatment was administered for 4 weeks.

[3] = system: NASH Rhesus monkeys; test: NASH Rhesus monkeys, liver biopsy histology (NAS and fibrosis scores); format: in vivo; parameters: key to Fibrosis score: 0: No fibrosis observed; 1a: Mild perisinus fibrosis in zone 3; 1b: Moderate sinus fibrosis in zone 3; 1c: Periportal fibrosis; 2: Perisinus and periportal fibrosis; 3: Bridging fibrosis; 4: Cirrhosis; key to NAS Score: NAFLD activity score (NAS) from steatosis, inflammation, ballooning grades; settings: for Fibrosis score / NAS Score / Steatosis score: individual animals
Method: Amount of specimens collected: ≤2 needles, each needle with a specimen length≤1.5 cm, and the total cumulative specimen length≤3 cm.
Approximately 2 cm of the collected tissue was immediately placed in 4% buffered formalin at room temperature and fixed for at least 24 hours. After appropriate modifications, dehydration, embedding, sectioning, HE staining, and Masson staining were performed.
Tissue sections were stained with H&E and Masson stains. Pathological slides were evaluated by a pathologist according to the diagnostic and treatment guidelines for non-alcoholic fatty liver disease (NAFLD) jointly drafted by the American Association for the Study of Liver Diseases (AASLD), the American College of Gastroenterology (ACG), and the American Gastroenterological Association (AGA). The diagnostic criteria can be found in Table 2 and Table 3.
After adequate fixation of the liver biopsy specimens, they were dehydrated, infiltrated with paraffin, embedded, and sectioned (5 μm) directly.
Routine deparaffinization of the sections was performed. The sections were sequentially immersed in 100% ethanol I, 100% ethanol II, 95%, 85%, and 75% ethanol for 3 minutes each. They were then rinsed with tap water for 3 minutes, stained with hematoxylin-eosin (HE) staining solution for 12 minutes, rinsed with tap water for 5 minutes, and stained with eosin Y solution (aqueous) for 3 minutes. Dehydration was carried out rapidly with 95% ethanol, followed by two rounds of dehydration with absolute ethanol for 2-5 minutes each. The sections were then cleared with xylene twice for 10 minutes each. Neutral mounting medium was applied, and microscopic examination was performed.
Routine deparaffinization of the sections was performed. The sections were stained with Weigert's iron hematoxylin for 5-7 minutes, and simultaneously, weak acid working solution was prepared by mixing distilled water and weak acid solution in a ratio of 2:1. The sections were rinsed with weak acid working solution for 1 minute. After rinsing with phosphomolybdic acid solution for 1-2 minutes, the sections were directly placed in aniline blue staining solution for 1-2 minutes, followed by rinsing with the prepared weak acid working solution for 1 minute. Dehydration was carried out rapidly with 95% ethanol, followed by two rounds of dehydration with absolute ethanol for 2-5 minutes each. The sections were then cleared with xylene twice for 10 minutes each. Neutral mounting medium was applied, and microscopic examination was performed.
The sections were observed under a microscope (with a digital imaging system), and pathological diagnosis and photography were performed. Based on the histopathological diagnosis, the HE and Masson results were scored according to the scoring criteria for non-alcoholic fatty liver disease activity score (NAS, Table 8) and liver fibrosis staging (Table 9).
Fifteen Rhesus monkeys were divided into 3 groups, with 5 monkeys in each group. They received subcutaneous injections of 0 (solvent control, placebo control group), 0.050, or 0.150 mg/kg of YN-011 once a week for 13 weeks (QW). The 0.150 mg/kg YN-011 group received adaptive dosing (0.1 mg/kg for the first dose, followed by 0.150 mg/kg for the remaining 12 doses).
To investigate whether YN-011 treatment led to histological improvements in the liver, liver biopsy specimens were collected from all Rhesus monkeys before the first injection and on day 89 after the first injection. Liver slices were stained with HE and Masson stains for histological analysis. The degrees of steatosis, inflammation, hepatocyte ballooning, and fibrosis were scored according to the standards for NAFLD activity and NASH progression.

[4] = system: patients with T2DM; settings: 1 mg YN-011, 24 weeks
[5] = 0.3 mg/kg sc BIW, 4 weeks, P<0.001
[6] = 50 μg/kg group, Day 89 post-injection
[7] = 150 μg/kg group, Day 89 post-injection

B1: YN-011: GLP-1 fusion protein of SEQ ID NO: 7: GLP-1 (A8G, G22E, R36G), linker peptide and IgG2/Fc domain (C222S, A330S, P331S) (protein)
chain: HGEGTFTSDVSSYLEEQAAKEFIAWLVKGGGSSGAPPPSGGGGSERKSCVECPPCPAPPVAGPSVFLFPPKPKDTLMISRTPEVTCVVVDVSHEDPEVQFNWYVDGVEVHNAKTKPREEQFNSTFRVVSVLTVVHQDWLNGKEYKCKVSNKGLPSSIEKTISKTKGQPREPQVYTLPPSREEMTKNQVSLTCLVKGFYPSDIAVEWESNGQPENNYKTTPPMLDSDGSFFLYSKLTVDKSRWQQGNVFSCSVMHEALHNHYTQKSLSLSPG
insulin secretion from beta cells ([1]; absence of glucose): did not stimulate insulin secretion | insulin secretion from beta cells ([1]; presence of 5 mM or 20 mM glucose): dose-dependently stimulated insulin secretion | UcP1 expression in BAT and epididymal WAT [2]: no effect | Ucp1 expression in inguinal WAT [2]: significantly upregulated | body weight ([2]; 0.3 mg/kg sc BIW, 4 weeks): significantly reduced | ectopic lipid accumulation and hepatic triglycerides ([2]; 0.3 mg/kg sc BIW, 4 weeks): significantly reduced | weight of other tissues (BAT, inguinal WAT, pancreas, calf muscle) ([2]; 0.3 mg/kg sc BIW, 4 weeks): no impact | AST levels ([2]; 0.3 mg/kg sc BIW, 4 weeks, Ctrl 145.6±16.8, P<0.05): 72.20±19.29 | serum ALT levels ([2]; 0.3 mg/kg sc BIW, 4 weeks, Ctrl 153.4±18.7, P<0.01): 34.2±7.7 | reduction in non-esterified fatty acids (NEFA) [2, 5]: 57% | reduction in total cholesterol (TC) [2, 5]: 30% | reduction in triglycerides (TG) [2, 5]: 68% | visceral fat, particularly epididymal fat content ([2]; 0.3 mg/kg sc BIW, 4 weeks, vs PBS control): significant decrease | blood glucose ([2]; after 4 weeks of treatment, glucose fluctuation / IPGTT, P<0.01): significantly reduced | insulin sensitivity ([2]; after 4 weeks of treatment, insulin tolerance, P<0.01): improved insulin sensitivity | core body temperature ([2]; at room temperature): higher core body temperature | VO2, VCO2 and EE normalized to body weight ([2]; during the night): significantly increased | food consumption ([2]; multiple administrations vs control): significant decrease | metabolic rate (VO2 and VCO2) and energy expenditure (EE) ([2]; not normalized, without statistical significance): increasing trend | Fibrosis score ([3]; 50 μg/kg group, Baseline): 1a (2×) and 1c (2×) and 0-1a | NAS Score ([3]; 50 μg/kg group, Baseline): 3 (2×) and 4 (3×) | Steatosis score ([3]; 50 μg/kg group, Baseline): 1 (5%~33%) (4×) and 2 (34%~66%) | Fibrosis score [3, 6]: 1a (2×) and 0~1a (3×) | NAS Score [3, 6]: 2 (3×) and 1 (2×) | Steatosis score [3, 6]: 0 (<5%) (4×) and 1 (5%~33%) | Fibrosis score ([3]; 150 μg/kg group, Baseline): 1a (2×) and 1b (2×) and 0~1a | NAS Score ([3]; 150 μg/kg group, Baseline): 3 (2×) and 4 (3×) | Steatosis score ([3]; 150 μg/kg group, Baseline): 2 (34%~66%) (4×) and 3 (>66%) | Fibrosis score [3, 7]: 1a (2×) and 1b and 0~1a (2×) | NAS Score [3, 7]: 1 (3×) and 2 (2×) | Steatosis score [3, 7]: 1 (5%~33%) (3×) and 0 (<5%) (2×) | NAS and liver fibrosis scores (liver biopsy) ([3]; NASH Rhesus monkeys treated with YN-011): reduction in both NAS and liver fibrosis scores | reduction in HbA1c levels [4]: 1.73%
